Assay results reported in publication PMC6934326, “A kinase-dependent checkpoint prevents escape of immature ribosomes into the translating pool” (PLoS Biology, 2019).
Each block holds one molecule with its values, some of them ahead of it.

Key:
[1] = system: Nob1; assay: EMSA; settings: 40 mM HEPES pH 7.6, 50 mM KCl, 10 mM MgCl2, 10 min at 30 C; trace 32P RNA prefolded at 65 C in 40 mM HEPES pH 7.6, 100 mM KCl, 2 mM MgCl2; 6% acrylamide/THEM …
[2] = target: T1, maltose-binding protein (MBP)-Rio1 (Saccharomyces cerevisiae (strain ATCC …, UniProt Q12196)); assay: MBP pull-down (amylose resin), Coomassie SDS-PAGE; tested with AMPPNP; Rio1 binds only when Nob1 and Pno1 are both present (with AMPPNP, little to none with ADP)
T1 chain: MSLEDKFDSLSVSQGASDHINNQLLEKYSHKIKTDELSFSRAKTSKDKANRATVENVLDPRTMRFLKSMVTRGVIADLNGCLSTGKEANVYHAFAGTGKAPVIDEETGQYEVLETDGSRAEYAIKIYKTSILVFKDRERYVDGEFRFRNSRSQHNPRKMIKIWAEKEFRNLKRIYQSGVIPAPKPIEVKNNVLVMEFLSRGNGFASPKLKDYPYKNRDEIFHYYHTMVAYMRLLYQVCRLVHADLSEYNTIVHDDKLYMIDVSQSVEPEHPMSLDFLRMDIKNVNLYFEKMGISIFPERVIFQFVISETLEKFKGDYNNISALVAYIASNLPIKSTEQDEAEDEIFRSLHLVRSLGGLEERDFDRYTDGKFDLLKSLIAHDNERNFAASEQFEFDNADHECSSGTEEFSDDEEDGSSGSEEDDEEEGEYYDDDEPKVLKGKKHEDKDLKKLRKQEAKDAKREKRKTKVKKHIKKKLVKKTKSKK

[3] = target: T2, MBP-Nob1 (Saccharomyces cerevisiae (strain ATCC …, UniProt Q08444)); assay: MBP pull-down (amylose resin), Coomassie SDS-PAGE; tested with AMPPNP; Rio1 binding requires Pno1 as well as Nob1
T2 chain: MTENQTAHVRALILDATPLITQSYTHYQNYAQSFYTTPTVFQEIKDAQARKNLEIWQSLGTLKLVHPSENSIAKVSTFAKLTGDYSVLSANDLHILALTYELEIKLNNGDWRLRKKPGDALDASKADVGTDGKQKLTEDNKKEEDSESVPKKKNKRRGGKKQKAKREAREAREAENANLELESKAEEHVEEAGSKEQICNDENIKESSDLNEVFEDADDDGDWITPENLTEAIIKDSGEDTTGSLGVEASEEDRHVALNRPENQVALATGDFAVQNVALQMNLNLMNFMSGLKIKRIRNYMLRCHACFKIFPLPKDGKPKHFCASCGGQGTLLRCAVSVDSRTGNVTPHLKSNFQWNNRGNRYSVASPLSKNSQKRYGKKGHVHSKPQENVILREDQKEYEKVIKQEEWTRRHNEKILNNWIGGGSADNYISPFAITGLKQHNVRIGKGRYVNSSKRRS

[4] = target: T3, Nob1–Pno1 complex (S. cerevisiae, UniProt Q08444 1-459; Q99216 1-274); assay: pull-down; 7 μM MBP-tagged protein held on amylose resin, 20 μM untagged protein; 50 mM HEPES pH 7.5, 200 mM NaCl, 5 mM MgCl2, 2 mM AMPPNP; 4 °C; eluted with 50 mM maltose; Coomassie-stained SDS-PAGE; settings: both partners purified
T3 construct: Nob1, S. cerevisiae, untagged, as m2; Pno1, S. cerevisiae, untagged, as m3; The two proteins were added together with MBP-Rio1 and preincubated; the complex was not isolated beforehand; also called Nob1 and Pno1
T3 sequence (looked up) 1: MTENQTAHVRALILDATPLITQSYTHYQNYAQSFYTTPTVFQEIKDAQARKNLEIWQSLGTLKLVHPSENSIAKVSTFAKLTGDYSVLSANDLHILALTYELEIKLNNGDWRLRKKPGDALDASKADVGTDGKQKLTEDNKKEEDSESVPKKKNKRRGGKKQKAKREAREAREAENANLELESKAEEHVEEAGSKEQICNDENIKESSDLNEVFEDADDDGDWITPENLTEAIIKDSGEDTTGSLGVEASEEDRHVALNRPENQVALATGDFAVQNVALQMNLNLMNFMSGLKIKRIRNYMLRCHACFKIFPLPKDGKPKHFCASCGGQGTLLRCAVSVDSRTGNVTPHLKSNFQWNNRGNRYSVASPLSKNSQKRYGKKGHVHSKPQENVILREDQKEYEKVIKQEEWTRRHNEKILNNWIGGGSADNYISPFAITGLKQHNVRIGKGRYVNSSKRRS
T3 sequence (looked up) 2: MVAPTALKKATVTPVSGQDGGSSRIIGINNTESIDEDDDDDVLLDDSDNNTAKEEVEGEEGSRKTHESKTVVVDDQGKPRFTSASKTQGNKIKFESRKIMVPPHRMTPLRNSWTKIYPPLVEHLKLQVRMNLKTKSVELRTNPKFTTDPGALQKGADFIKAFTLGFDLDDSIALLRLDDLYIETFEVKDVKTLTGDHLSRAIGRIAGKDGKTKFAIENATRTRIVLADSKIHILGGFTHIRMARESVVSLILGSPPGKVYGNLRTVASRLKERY

[5] = target: T4, MBP-Pno1 (Saccharomyces cerevisiae (strain ATCC …, UniProt Q99216)); assay: MBP pull-down (amylose resin), Coomassie SDS-PAGE; tested with AMPPNP; Rio1 binding requires Nob1 as well as Pno1
T4 chain: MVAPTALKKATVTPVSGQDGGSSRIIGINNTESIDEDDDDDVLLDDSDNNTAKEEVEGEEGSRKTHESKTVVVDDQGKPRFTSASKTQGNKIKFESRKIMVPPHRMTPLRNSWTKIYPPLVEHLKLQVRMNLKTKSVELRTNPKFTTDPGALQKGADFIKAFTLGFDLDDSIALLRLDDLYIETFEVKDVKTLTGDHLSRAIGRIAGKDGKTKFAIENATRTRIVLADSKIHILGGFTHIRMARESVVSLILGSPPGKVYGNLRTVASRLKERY

Molecule: D-A2 (3'-ITS1 product)
Kd [1]: 960 nM

B1: Nob1 (protein)
chain: MTENQTAHVRALILDATPLITQSYTHYQNYAQSFYTTPTVFQEIKDAQARKNLEIWQSLGTLKLVHPSENSIAKVSTFAKLTGDYSVLSANDLHILALTYELEIKLNNGDWRLRKKPGDALDASKADVGTDGKQKLTEDNKKEEDSESVPKKKNKRRGGKKQKAKREAREAREAENANLELESKAEEHVEEAGSKEQICNDENIKESSDLNEVFEDADDDGDWITPENLTEAIIKDSGEDTTGSLGVEASEEDRHVALNRPENQVALATGDFAVQNVALQMNLNLMNFMSGLKIKRIRNYMLRCHACFKIFPLPKDGKPKHFCASCGGQGTLLRCAVSVDSRTGNVTPHLKSNFQWNNRGNRYSVASPLSKNSQKRYGKKGHVHSKPQENVILREDQKEYEKVIKQEEWTRRHNEKILNNWIGGGSADNYISPFAITGLKQHNVRIGKGRYVNSSKRRS
binding result [2]: no binding

Second part, the molecule after the results:

binding result [3]: no binding
binding result [4]: binds
binding result [5]: no binding
B2: maltose-binding protein (MBP)-Rio1 (enzyme, S. cerevisiae, UniProt Q12196 1-484, looked up)
chain: MSLEDKFDSLSVSQGASDHINNQLLEKYSHKIKTDELSFSRAKTSKDKANRATVENVLDPRTMRFLKSMVTRGVIADLNGCLSTGKEANVYHAFAGTGKAPVIDEETGQYEVLETDGSRAEYAIKIYKTSILVFKDRERYVDGEFRFRNSRSQHNPRKMIKIWAEKEFRNLKRIYQSGVIPAPKPIEVKNNVLVMEFLSRGNGFASPKLKDYPYKNRDEIFHYYHTMVAYMRLLYQVCRLVHADLSEYNTIVHDDKLYMIDVSQSVEPEHPMSLDFLRMDIKNVNLYFEKMGISIFPERVIFQFVISETLEKFKGDYNNISALVAYIASNLPIKSTEQDEAEDEIFRSLHLVRSLGGLEERDFDRYTDGKFDLLKSLIAHDNERNFAASEQFEFDNADHECSSGTEEFSDDEEDGSSGSEEDDEEEGEYYDDDEPKVLKGKKHEDKDLKKLRKQEAKDAKREKRKTKVKKHIKKKLVKKTKSKK
notes: Rio1, aspartate kinase, S. cerevisiae; cloned into pSV272 as a TEV-cleavable His6-MBP fusion; The tag was not cut off for this form; also called His-MBP-tagged Rio1; His6-MBP fusion protein; source: E. coli Rosetta DE3, purified (Ni-NTA, MonoQ, Superdex200)

binding result [2]: no binding
B3: Pno1 (protein)
chain: MVAPTALKKATVTPVSGQDGGSSRIIGINNTESIDEDDDDDVLLDDSDNNTAKEEVEGEEGSRKTHESKTVVVDDQGKPRFTSASKTQGNKIKFESRKIMVPPHRMTPLRNSWTKIYPPLVEHLKLQVRMNLKTKSVELRTNPKFTTDPGALQKGADFIKAFTLGFDLDDSIALLRLDDLYIETFEVKDVKTLTGDHLSRAIGRIAGKDGKTKFAIENATRTRIVLADSKIHILGGFTHIRMARESVVSLILGSPPGKVYGNLRTVASRLKERY
